No end group written: not given here.

Series [1] in a line: sedimentation equilibrium AUC, self-association, 25 C.
The nature of series [2]: sedimentation equilibrium AUC, self-association, 20 C.
The nature of series [3]: sedimentation equilibrium AUC, self-association, 10 C.
Series [4] can be described thus: sedimentation equilibrium AUC, self-association, 30 C.
Series [5] in a line: sedimentation equilibrium AUC, self-association, 15 C.
Series [6] can be described thus: sedimentation equilibrium AUC, self-association, 5 C.

In turn, GPSQPTAPGDDAPVEDLIRFYDNLQQYLNVVTRHRY-NH2 [aPP^Y7A] gave a % monomer at 30 µM in series [1] of 98%.

Consider GPSQPTYPGDDAPVEDLIRAYDNLQQYLNVVTRHRY-NH2 [aPP^F20A], for which the % monomer at 30 µM in series [1] is 100%.

In series [1], GPSQPEAPGDDAPVEDLIRFYDNLQQYLNVVTRHRY-NH2 [aPP^Y7AT6E] came in with a % monomer at 30 µM of 79%.

GPSQPTAPGDDASPEDLIRFYDNLQQYLNVVTRHRY-NH2 [aPP^Y7AP13SV14P]: the % monomer at 30 micromolar total peptide stood at 90% in series [2]; 90% in series [1]; 82% in series [3]; 98% in series [4]; 84% in series [5]; 74% in series [6].

On to GPSQPTAPGDDAVPEDLIRFYDNLQQYLNVVTRHRY-NH2 [aPP^Y7AP13VV14P], for which the % monomer at 30 µM in series [1] was found to be 90%.

GPSQPTYPGDDAPVEDLIRFYDNLQQYLNVVTRHRY (ends and bridges not checked) [avian pancreatic polypeptide (aPP)]: the % monomer at 30 µM in series [1] worked out at 23%.

Turning to GPSQPTYPGDDAPVEDLIRFADNLQQYLNVVTRHRY-NH2 [aPP^Y21A], the % monomer at 30 µM in series [1] amounted to 14%.

The protein GPSQPTAPGDDAPVEDLIRFYDNLRQYLNVVTRHRY-NH2 [aPP^Y7AQ25R] came in with a % monomer at 30 µM in series [1] of 78%.

For the origin of these results see patent US20100273722.
